This data set addresses RIOK2 (rhRIOK2, full length) (Homo sapiens, UniProt Q9BVS4 SEQ:1-552). Description: EMSA; low-salt buffer, 4 C, protein:DNA 5:1. The following applies: tags: GST; Abcam. On the procedure: Recombinant human GST-tagged RIOK2 (rhRIOK2, Abcam) was incubated with duplex DNA (Table 5) at 5:1 molar ratio in a low-salt buffer for 20-30 minutes at 4° C. and 2% agarose gel was cast and cooled to 4° C. The DNA-protein mixture was supplemented with 0.22p filtered 50% glycerol solution to facilitate loading. The gel was run for 1.5 hours at 4° C., followed by incubation in ethidium bromide solution for 30 minutes and visualized using ChemiDoc Touch Imaging system (Bio-Rad). ImageJ was used to quantify band shifts.
Background: A gel shift assay detects complexes by their altered migration in electrophoresis.

RIOK2 (rhRIOK2, full length), sequence (Q9BVS4 whole entry): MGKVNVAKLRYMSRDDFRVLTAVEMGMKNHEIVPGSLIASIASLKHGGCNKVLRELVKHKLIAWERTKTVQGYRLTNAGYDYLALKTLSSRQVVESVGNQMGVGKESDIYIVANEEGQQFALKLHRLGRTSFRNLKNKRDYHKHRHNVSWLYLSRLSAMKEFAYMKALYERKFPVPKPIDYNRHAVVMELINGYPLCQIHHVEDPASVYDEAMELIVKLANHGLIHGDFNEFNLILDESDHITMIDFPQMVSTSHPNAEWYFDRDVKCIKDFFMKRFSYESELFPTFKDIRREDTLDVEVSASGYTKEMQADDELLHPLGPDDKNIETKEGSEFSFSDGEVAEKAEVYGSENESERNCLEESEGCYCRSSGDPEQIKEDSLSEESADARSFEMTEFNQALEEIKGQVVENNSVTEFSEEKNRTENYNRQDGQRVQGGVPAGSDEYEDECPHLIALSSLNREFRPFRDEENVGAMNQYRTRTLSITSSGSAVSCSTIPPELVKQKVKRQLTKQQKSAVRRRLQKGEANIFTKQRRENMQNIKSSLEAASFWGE

B1: GATA1-WT duplex (dsDNA)
DNA 1: ACACACCTGTAGTCCCAGCTACTCAGGAGG
DNA 2: CCTCCTGAGTAGCTGGGACTACAGGTGTGT
In the case of B1, the binding result is reported as “binds”.

B2: SPI1-WT duplex (dsDNA)
DNA 1: AAGGGGACTATCTCCCAGCGGCAGGCCCTT
DNA 2: AAGGGCCTGCCGCTGGGAGATAGTCCCCTT
With B2, the binding result is “binds”.

B3: GATA2-WT duplex (dsDNA)
DNA 1: CTTGGGCTTTCCTCCCACCCGGGACTGGTG
DNA 2: CACCAGTCCCGGGTGGGAGGAAAGCCCAAG
As for B3, the binding result was “binds”.

B4: RUNX3-WT duplex (dsDNA)
DNA 1: CCGGGCGCCGCCCCCTGCGCCCTGAGGCCC
DNA 2: GGGCCTCAGGGCGCAGGGGGCGGCGCCCGG
Take B4: the binding result is listed as “binds”.

For the origin of these results see patent US20250381241, “METHODS AND COMPOSITIONS TO MODULATE RIOK2” (Dana-Farber Cancer Institute, Inc., published 2025).
